Laboratory results: paper PMC11347137, “Cytosine analogues as DNA methyltransferase substrates”

Target: M.MpeI (called wild type) (Mycoplasma penetrans? (printed "M. …, UniProt Q8EVR5 1-395, Q68R;K71R;S295P))
Assay: EMSA; 80 uM SAM, 1 mM DTT, 10 mM MgCl2; non-covalent complex among the most abundant; EMSA: 10 mM Tris-HCl pH 7.9, 50 mM NaCl, 10 mM MgCl2, 1 mM DTT, 80 uM SAM, 37 C 1 h, 1 uM DNA, 0.5-4 uM protein; covalent SDS-PAGE: 10 mM Tris-HCl pH 7.9, 50 mM NaCl, 160 uM SAM or sinefungin, +/-10 mM DTT, 37 C
Settings: protein: recombinant; tags: C-terminal LEHHHHHH; label: 5' Cy3 or 5' 32P on strand 2; blunt

Binder | binding result
30-dhaC / 30-5mC-down (dsDNA, 5,6-dihydro-5-azacytosine at position 15 of strand 1 (written C); 5mC at position 15 of strand 2) DNA 1: CAGCATTATCACAGCGTTTACACAATAACC DNA 2: GGTTATTGTGTAAACGCTGTGATAATGCTG | binds
30-5mZ / 30-5mC-down (dsDNA, 5-methyl-2-pyrimidinone (5-methylzebularine) at position 15 of strand 1 (written C); 5mC at position 15 of strand 2) DNA 1: CAGCATTATCACAGCGTTTACACAATAACC DNA 2: GGTTATTGTGTAAACGCTGTGATAATGCTG | binds
